# Data as given in US20180155451A1 (published 2018).
# T1: FcγRIIa H (human, UniProt P12318 34-217)
# T1 construct: extracellular domain; Soluble His-tagged extracellular domain expressed in FreeStyle293 cells; also called FcγRIIa type H; FcgRIIa H; not shown: His tag attached to the C terminus
# T1 sequence (looked up): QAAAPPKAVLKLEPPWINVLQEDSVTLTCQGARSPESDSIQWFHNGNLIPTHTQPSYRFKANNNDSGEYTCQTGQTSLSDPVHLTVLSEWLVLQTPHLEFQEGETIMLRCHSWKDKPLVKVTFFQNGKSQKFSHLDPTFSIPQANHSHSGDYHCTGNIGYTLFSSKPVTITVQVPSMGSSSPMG
# T2: FcγRIIb (human, UniProt P31994 43-217)
# T2 construct: extracellular domain; Soluble His-tagged extracellular domain expressed in FreeStyle293 cells; also called FcgRIIb; 2b; not shown: His tag attached to the C terminus
# T2 sequence (looked up): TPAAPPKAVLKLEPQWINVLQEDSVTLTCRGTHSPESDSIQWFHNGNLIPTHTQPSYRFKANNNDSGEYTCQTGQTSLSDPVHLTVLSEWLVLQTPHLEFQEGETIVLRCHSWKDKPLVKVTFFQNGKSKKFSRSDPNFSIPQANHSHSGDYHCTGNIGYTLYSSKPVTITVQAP
# B1: GpH7-A5/GpH7-B3 variant N325_01G/GpL16-k0 (antibody, human IgG1, kappa)
# heavy 1: not shown
# heavy 2: not shown
# light: DIVMTQSPLSLPVTPGEPASISCQASESLVHSNRNTYLHWYLQKPGQSPQLLIYKVSNRFSGVPDRFSGSGSGTDFTLKISRVEAEDVGVYYCSQNTHVPPTFGQGTKVEIERTVAAPSVFIFPPSDEQLKSGTASVVCLLNNFYPREAKVQWKVDNALQSGNSQESVTEQDSKDSTYSLSSTLTLSKADYEKHKVYACEVTHQGLSSPVTKSFNRGEC
# notes: Heterodimerized anti-glypican-3 IgG1; mutation in the GpH7-B3 H chain only; also called He Ab
# B2: GpH7-A5/GpH7-B3 variant K326_20W/GpL16-k0 (antibody, human IgG1, kappa)
# heavy 1: not shown
# heavy 2: not shown
# light: B1 light
# notes: as for B1
# B3: GpH7-A5/GpH7-B3 variant N325_04F/GpL16-k0 (antibody, human IgG1, kappa)
# heavy 1: not shown
# heavy 2: not shown
# light: B1 light
# notes: as for B1
# B4: GpH7-A5/GpH7-B3 variant K326_06M/GpL16-k0 (antibody, human IgG1, kappa)
# heavy 1: not shown
# heavy 2: not shown
# light: B1 light
# notes: as for B1
# B5: GpH7-A5/GpH7-B3 variant N325_07I/GpL16-k0 (antibody, human IgG1, kappa)
# heavy 1: not shown
# heavy 2: not shown
# light: B1 light
# notes: as for B1
# B6: GpH7-A5/GpH7-B3 variant N325_06M/GpL16-k0 (antibody, human IgG1, kappa)
# heavy 1: not shown
# heavy 2: not shown
# light: B1 light
# notes: as for B1
# B7: GpH7-A5/GpH7-B3 variant N325_03V/GpL16-k0 (antibody, human IgG1, kappa)
# heavy 1: not shown
# heavy 2: not shown
# light: B1 light
# notes: as for B1
# B8: GpH7-A5/GpH7-B3 variant K326_08L/GpL16-k0 (antibody, human IgG1, kappa)
# heavy 1: not shown
# heavy 2: not shown
# light: B1 light
# notes: as for B1
# B9: GpH7-A5/GpH7-B3 variant K326_10E/GpL16-k0 (antibody, human IgG1, kappa)
# heavy 1: not shown
# heavy 2: not shown
# light: B1 light
# notes: as for B1
# B10: GpH7-A5/GpH7-B3 variant N325_05P/GpL16-k0 (antibody, human IgG1, kappa)
# heavy 1: not shown
# heavy 2: not shown
# light: B1 light
# notes: as for B1
# B11: GpH7-A5/GpH7-B3 variant K326_14T/GpL16-k0 (antibody, human IgG1, kappa)
# heavy 1: not shown
# heavy 2: not shown
# light: B1 light
# notes: as for B1
# B12: GpH7-A5/GpH7-B3 variant K326_19Q/GpL16-k0 (antibody, human IgG1, kappa)
# heavy 1: not shown
# heavy 2: not shown
# light: B1 light
# notes: as for B1
# B13: GpH7-A5/GpH7-B3 variant K326_09D/GpL16-k0 (antibody, human IgG1, kappa)
# heavy 1: not shown
# heavy 2: not shown
# light: B1 light
# notes: as for B1
# B14: GpH7-A5/GpH7-B3 variant K326_15Y/GpL16-k0 (antibody, human IgG1, kappa)
# heavy 1: not shown
# heavy 2: not shown
# light: B1 light
# notes: as for B1
# B15: GpH7-A5/GpH7-B3 variant N325_02A/GpL16-k0 (antibody, human IgG1, kappa)
# heavy 1: not shown
# heavy 2: not shown
# light: B1 light
# notes: as for B1
# B16: GpH7-A5/GpH7-B3 variant K326_07I/GpL16-k0 (antibody, human IgG1, kappa)
# heavy 1: not shown
# heavy 2: not shown
# light: B1 light
# notes: as for B1
# B17: GpH7-A5/GpH7-B3 variant S337_18N/GpL16-k0 (antibody, human IgG1, kappa)
# heavy 1: not shown
# heavy 2: not shown
# light: B1 light
# notes: as for B1
# Biological target: T1, FcγRIIa H
# Assay: SPR (Biacore), captured antibody, FcγR analyte; relative to GpH7-A5/GpH7-B3/GpL16-k0 = 100
# Procedure: (§1) The heterodimerized antibodies He Abs in which one of the H chains was introduced with an alteration were assayed for their binding activities to each activating FcγR and inhibitory FcγR according to the method described in Example 4. […] The activating FcγRs in FIGS. 26, 27, 28, and 29 are FcγRIa, FcγRIIa (R), FcγRIIa (H), and FcγRIIIa, respectively.
# (§2) Analysis of interaction between objective antibody and the FcγR was carried out using Biacore T100 (GE Healthcare). HBS-EP+ (GE Healthcare) was used as the running buffer, and the measurement temperature was set to 25° C. Chips produced by immobilizing the antigen peptide by the amine coupling method to a Series S Sencor Chip CM5 (GE Healthcare), or alternatively, chips produced by allowing preliminarily biotinylated antigen peptides to interact with and immobilize onto a Series S Sensor Chip SA (certified) (GE Healthcare) were used. Antibodies of interest were captured onto an antigen peptide-immobilized chip, and allowed to interact to each FcγR diluted with running buffer. To regenerate and repeatedly use the chip, the antibodies captured on the chip were washed off by reacting 10 mM glycine-HCl, pH 1.5.
row,He/Con_2aH,Binder
1,56.8 relative (control = 100),B1
2,83.3 relative (control = 100),B2
3,33.4 relative (control = 100),B3
4,103 relative (control = 100),B4
5,38.1 relative (control = 100),B5
6,48.2 relative (control = 100),B6
7,45.2 relative (control = 100),B7
8,92.7 relative (control = 100),B8
9,102 relative (control = 100),B9
10,20.7 relative (control = 100),B10
11,114 relative (control = 100),B11
12,101 relative (control = 100),B12
13,110 relative (control = 100),B13
14,98.3 relative (control = 100),B14
15,47.6 relative (control = 100),B15
16,100 relative (control = 100),B16
17,99.8 relative (control = 100),B17

# Biological target: T2, FcγRIIb
# Assay: as above
# Procedure: as §1, §2
row,He/Con_2b,Binder
1,101 relative (control = 100),B1
2,148 relative (control = 100),B2
3,143 relative (control = 100),B3
4,165 relative (control = 100),B4
5,171 relative (control = 100),B5
6,217 relative (control = 100),B6
7,111 relative (control = 100),B7
8,177 relative (control = 100),B8
9,200 relative (control = 100),B9
10,26 relative (control = 100),B10
11,150 relative (control = 100),B11
12,139 relative (control = 100),B12
13,193 relative (control = 100),B13
14,159 relative (control = 100),B14
15,64.4 relative (control = 100),B15
16,199 relative (control = 100),B16
17,103 relative (control = 100),B17

# Biological target: T1, FcγRIIa H
# Assay: SPR (Biacore); He/Con_2aH divided by He/Con_2b (FcγRIIb) of the same antibody
# Procedure: as §1, §2
row,He_2aH/2b [ratio],Binder
1,0.56,B1
2,0.56,B2
3,0.23,B3
4,0.63,B4
5,0.22,B5
6,0.22,B6
7,0.41,B7
8,0.52,B8
9,0.51,B9
10,0.8,B10
11,0.77,B11
12,0.73,B12
13,0.57,B13
14,0.62,B14
15,0.74,B15
16,0.5,B16
